# Changes are numbered by the printed parent chain. Ends that are not written are not given here. * marks the point of attachment. Biotin = O=C1N[C@H]2[C@H](CS[C@H]2CCCCC(=O)*)N1
# T1: N-terminal coupled CGGGEDVGSNKGAIIGLMVGG (22-38) ovalbumin conjugate (coupled by the N-terminus to ovalbumin)
# T1 peptide: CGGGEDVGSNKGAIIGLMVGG
# T2: N-terminal biotinylated β-amyloid (24-34) peptide
# T2 peptide: Biotin-VGSNKGAIIGL
# T3: ovalbumin protein (UniProt P01012 2-386)
# T3 sequence (looked up): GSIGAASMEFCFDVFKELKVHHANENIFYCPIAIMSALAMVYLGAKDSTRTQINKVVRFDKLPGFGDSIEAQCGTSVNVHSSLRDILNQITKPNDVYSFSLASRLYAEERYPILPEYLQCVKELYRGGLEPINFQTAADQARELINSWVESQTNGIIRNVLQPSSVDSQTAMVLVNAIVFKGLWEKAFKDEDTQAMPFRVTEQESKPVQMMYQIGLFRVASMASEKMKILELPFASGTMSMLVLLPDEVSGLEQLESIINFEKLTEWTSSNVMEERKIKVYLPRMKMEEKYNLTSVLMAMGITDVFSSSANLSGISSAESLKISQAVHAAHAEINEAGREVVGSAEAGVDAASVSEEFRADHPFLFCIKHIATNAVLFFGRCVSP
# B1: 2C1 mouse monoclonal antibody (antibody, V domains shown)
# VH: EVQLQQSGAELVKPGASVKLSCTGSGFNIKVYYVHWLKQLTEQGLEWIGRIDPENGETIYAPKFQDKATLTVDTSSNTAYLQLSSLTSEDTAVYYCVSSGYWGQGTTLTVSS
# VL: DIVMTQSAFSNPVTLGTSASISCRSSKSLLHRNGITYLYWYLQKPGQSPQLLIYQMSNLASGVPDRFTSSGSGTDFTLKISRVEAEDVGVYYCAQNLELWTFGGGTKLEIK
# notes: Mouse hybridoma antibody
# B2: 2E11 mouse monoclonal antibody (antibody, V domains shown)
# VH: B1 VH with L11V, G24A, V34I, I59K, A61V, D66G, Q82H, A92G, S98T
# VL: B1 VL with S7A, T14A, R32S, T68S, K79R
# notes: Mouse hybridoma antibody
# B3: 5C9 mouse monoclonal antibody (antibody, V domains shown)
# VH: EVQLQQSGAEFVRPGASVKLSCTASGFNIKTYYIHWLKQRTDQGLEWIGRIDPEDGETKFGPKFRGKATLTADTSSNTASLQLSSLTSEDTGVYYCVTSGYWGQGTTLSVSS
# VL: B1 VL with S7A, R32S, T68S, K79R
# notes: Mouse hybridoma antibody
# B4: 16D4 mouse monoclonal antibody (antibody, V domains shown)
# VH: B1 VH with G24A, V31D, V34M, I59Q, D66G, T69S, V72A, Q82H
# VL: B1 VL with S7A, R32S, T68S, K79R
# notes: Mouse hybridoma antibody
# B5: 14B3 mouse monoclonal antibody (antibody, V domains shown)
# VH: B1 VH with K13E, I59L, A61T, D66G, L70F
# VL: B1 VL
# notes: Mouse hybridoma antibody
# B6: 4D4 mouse monoclonal antibody (antibody, V domains shown)
# VH: B1 VH with K13E, I59L, A61T, D66G, S84N, T107S
# VL: B1 VL
# notes: Mouse hybridoma antibody
# B7: 5D1 mouse monoclonal antibody (antibody, V domains shown)
# VH: B1 VH with I59K, Q82H
# VL: B1 VL
# notes: Mouse hybridoma antibody
# B8: straight graft light chain L0 in combination with H11 (antibody, V domains shown)
# VH: QVQLVQSGAEVKEPGASVKVSCKGSGFNIKVYYVHWLRQLPGKGLEWIGRIDPENGETIYTPKFQDKATLTVDTSTDTAYMELSSLRSEDTAVYYCVSSGYWGQGTLVTVSS
# VL: DIVMTQSPLSLPVTPGEPASISCRSSKSLLHRNGITYLYWYLQKPGQSPQLLIYQMSNLASGVPDRFSGSGSGTDFTLKISRVEAEDVGVYYCAQNLELWTFGQGTKVEIKR
# notes: Kabat positions; after CDRL1 the count on the entry is Kabat + 5; also called H11L0
# B9: humanised VL variant L14 in combination with H11 (antibody, V domains shown)
# VH: B8 VH
# VL: B8 VL with S48P, Q104G
# notes: Kabat positions; after CDRL1 the count on the entry is Kabat + 5; also called H11L14
# B10: humanised de-immunised construct H50L20 (antibody, human IgG1, V domains shown)
# VH: B8 VH with K23T, K30H, G42E
# VL: B1 VL with A8P, F9L, L15P, T17E, S18P, S57D, N58H, T68S, G104Q, L108V
# B11: humanised de-immunised construct H48L20 (antibody, human IgG1, V domains shown)
# VH: B8 VH with K30H, G42E
# VL: B1 VL with A8P, F9L, L15P, T17E, S18P, S57D, N58H, T68S, G104Q, L108V
# B12: humanised de-immunised construct H48L21 (antibody, human IgG1, V domains shown)
# VH: B8 VH with K30H, G42E
# VL: B1 VL with A8P, F9L, L15P, T17E, S18P, I35K, S57D, T68S, G104Q, L108V
# B13: humanised de-immunised construct H51L20 (antibody, human IgG1, V domains shown)
# VH: B8 VH with K30H, V31T, G42E
# VL: B1 VL with A8P, F9L, L15P, T17E, S18P, S57D, N58H, T68S, G104Q, L108V
# B14: humanised de-immunised construct H50L21 (antibody, human IgG1, V domains shown)
# VH: B8 VH with K23T, K30H, G42E
# VL: B1 VL with A8P, F9L, L15P, T17E, S18P, I35K, S57D, T68S, G104Q, L108V
# B15: humanised de-immunised construct H51L21 (antibody, human IgG1, V domains shown)
# VH: B8 VH with K30H, V31T, G42E
# VL: B1 VL with A8P, F9L, L15P, T17E, S18P, I35K, S57D, T68S, G104Q, L108V
# B16: humanised de-immunised construct H48L19 (antibody, human IgG1, V domains shown)
# VH: B8 VH with K30H, G42E
# VL: DIVMTQSPLSNPVTPGEPASISCRSSKSLLHRNGKTYLYWYLQKPGQSPQLLIYQMDHLASGVPDRFSSSGSGTDFTLKISRVEAEDVGVYYCAQNLELWTFGQGTKVEIK
# B17: humanised de-immunised construct H49L20 (antibody, human IgG1, V domains shown)
# VH: B8 VH with V31T, G42E
# VL: B16 VL with K35I
# B18: humanised de-immunised construct H49L19 (antibody, human IgG1, V domains shown)
# VH: B8 VH with V31T, G42E
# VL: B16 VL
# B19: humanised de-immunised construct H49L21 (antibody, human IgG1, V domains shown)
# VH: B8 VH with V31T, G42E
# VL: B16 VL with H58N
# B20: humanised de-immunised construct H51L19 (antibody, human IgG1, V domains shown)
# VH: B8 VH with K30H, V31T, G42E
# VL: B16 VL
# B21: humanised de-immunised construct H50L19 (antibody, human IgG1, V domains shown)
# VH: B8 VH with K23T, K30H, G42E
# VL: B16 VL
# Biological target: T1, N-terminal coupled …
# Assay: FMAT bead immunoassay, culture supernatant
# Text: (§1) Each of the expressed antibodies contained in culture supernatant was then screened in an FMAT (Fluorescent Microvolume Assay Technology) homogenous immunoassay. 29 positive antibodies were identified from this screening cascade that were negative for ovalbumin protein passively absorbed to polystyrene beads but positive for: [0158] (i) N-terminal coupled […] (22-38) (SEQ ID No:73) ovalbumin conjugate bound to polystyrene beads, [0159] (ii) N-terminal biotinylated β-amyloid(1-40) peptide bound to streptavidin coated polystyrene beads, [0160] (iii) C-terminal biotinylated β-amyloid(1-40) peptide bound to streptavidin coated polystyrene beads and [0161] (iv) N-terminal biotinylated β-amyloid (24-34) peptide, residues 24-34 of β-amyloid being […] (SEQ ID No:8), bound to streptavidin coated polystyrene beads.
row,binding result,Binder
1,binds,B1
2,binds,B2
3,binds,B3
4,binds,B4
5,binds,B5
6,binds,B6
7,binds,B7

# Biological target: T2, N-terminal biotinylated β-amyloid …
# Assay: FMAT bead immunoassay, culture supernatant
# Text: as §1
row,binding result,Binder
1,binds,B1
2,binds,B2
3,binds,B3
4,binds,B4
5,binds,B5
6,binds,B6
7,binds,B7

# Biological target: T3, ovalbumin protein
# Assay: FMAT bead immunoassay, culture supernatant
# Text: as §1
row,binding result,Binder
1,no binding,B1
2,no binding,B2
3,no binding,B3
4,no binding,B4
5,no binding,B5
6,no binding,B6
7,no binding,B7

# Biological target: T4, human β-amyloid 1-40 (human, UniProt P05067 672-711)
# T4 construct: domain: β-amyloid (1-40); Used in solution over captured antibody (Biacore) or coated on ELISA plates; also called human Aβ peptide (1-40); Aβ peptide (1-40)
# Assay: ELISA on human Aβ peptide (1-40), in combination with H11
# T4 sequence (P05067 672-711 limits assumed): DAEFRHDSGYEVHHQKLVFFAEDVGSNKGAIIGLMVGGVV
row,binding result,Binder
1,binds,B8
2,binds,B9

# Biological target: T4, human β-amyloid 1-40
# Assay: SPR Biacore 3000; mAb captured on anti-mouse IgG; triplicate run
# Description: (§2) Purified mouse antibody preparations were captured on a polyclonal anti-mouse IgG antibody chip surface. Freshly prepared human β-amyloid 1-40 was diluted down in HBS-EP buffer and passed over the captured antibody surface at concentrations ranging from 4-500 nM for 5 minutes. […] Regeneration was achieved via a pulse of 100 mM H₃PO₄. […] All runs were double referenced against a blank surface and blank buffer injections.
Kd,koff,kon,Binder
2.05 nM,0.000135 s⁻¹,65800 M⁻¹ s⁻¹,B7

# Biological target: T4, human β-amyloid 1-40
# Assay: SPR Biacore 3000; mAb captured on anti-mouse IgG, Aβ 1-40 at 4-500 nM
# Description: as §2
Kd,koff,kon,Binder
1.95 nM,0.000129 s⁻¹,66300 M⁻¹ s⁻¹,B1
2.01 nM,0.00017 s⁻¹,84500 M⁻¹ s⁻¹,B2
2.69 nM,0.000164 s⁻¹,61100 M⁻¹ s⁻¹,B3
7.62 nM,0.000618 s⁻¹,81200 M⁻¹ s⁻¹,B4
0.95 nM,7.11e-05 s⁻¹,74800 M⁻¹ s⁻¹,B5
1.13 nM,8.27e-05 s⁻¹,73200 M⁻¹ s⁻¹,B6
2.57 nM,0.000147 s⁻¹,57000 M⁻¹ s⁻¹,B7

# Biological target: T4, human β-amyloid 1-40
# Assay: SPR Biacore T100 at 37 C; antibody captured on anti-human IgG, Aβ 1-40 at 1-256 nM
# Description: (§3) Anti-human IgG (Biacore BR-1008-39) was coupled to a CM5 biosensor chip by primary amine coupling. The anti-beta amyloid antibodies were captured on this surface. Beta amyloid (1-40) was then passed over at 256, 64, 16, 4 and 1 nM, with a 0 nM (ie buffer alone passed over the captured antibody surface) used for double referencing. […] The data was analysed using the 1:1 model inherent to the T100. The run was carried out at 25° C. and 37° C. using HBS-EP as the running buffer.
# From this panel some constructs were also assessed for binding kinetics at physiological temperature.
row,Kd,Binder
1,3.5 nM,B10
2,3.54 nM,B11
3,2.69 nM,B12
4,3.89 nM,B13
5,2.7 nM,B14
6,2.9 nM,B15

# Biological target: T4, human β-amyloid 1-40
# Assay: SPR Biacore T100; antibody captured on anti-human IgG, Aβ 1-40 at 1-256 nM; 1:1 model
# Description: as §3
row,Kd,Binder
1,3.15 nM,B16
2,2.5 nM,B10
3,2.02 nM,B11
4,2.01 nM,B12
5,2.23 nM,B13
6,2.23 nM,B17
7,3.09 nM,B18
8,2.17 nM,B14
9,2.05 nM,B15
10,2.58 nM,B19
11,2.65 nM,B20
12,2.76 nM,B21

# Source: patent US20090162358A1 (GlaxoSmithKline, published 2009)
